Assay results: article PMC7954794, “Protein context shapes the specificity of SH3 domain-mediated interactions in vivo” (Nature Communications, 2021)

System: growth of yeast strains under 51 stress conditions
Assay: Growth assays in 51 stress conditions (Fig. 1E-F, S2D, S5B)
Format: cell-based, Saccharomyces cerevisiae
Design: key to Growth (Fig. S2D) / growth of ABP1 SH3-swapped strains in stress condition: log2 colony size, average of median per strain (growth score)
Settings: ABP1 SH3-swapped strains
In short: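 Colony sizes at 74 h on 51 stress media (37 °C) were log2 transformed, corrected for plate effects, and averaged across two plates as per-plate medians (growth score). Strains arrayed in 12 replicates with WT border, grown first on YPD for two days at 30 °C.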

B1: MYO3 (protein, UniProt P36006 1-1272, looked up)
Myosin-3: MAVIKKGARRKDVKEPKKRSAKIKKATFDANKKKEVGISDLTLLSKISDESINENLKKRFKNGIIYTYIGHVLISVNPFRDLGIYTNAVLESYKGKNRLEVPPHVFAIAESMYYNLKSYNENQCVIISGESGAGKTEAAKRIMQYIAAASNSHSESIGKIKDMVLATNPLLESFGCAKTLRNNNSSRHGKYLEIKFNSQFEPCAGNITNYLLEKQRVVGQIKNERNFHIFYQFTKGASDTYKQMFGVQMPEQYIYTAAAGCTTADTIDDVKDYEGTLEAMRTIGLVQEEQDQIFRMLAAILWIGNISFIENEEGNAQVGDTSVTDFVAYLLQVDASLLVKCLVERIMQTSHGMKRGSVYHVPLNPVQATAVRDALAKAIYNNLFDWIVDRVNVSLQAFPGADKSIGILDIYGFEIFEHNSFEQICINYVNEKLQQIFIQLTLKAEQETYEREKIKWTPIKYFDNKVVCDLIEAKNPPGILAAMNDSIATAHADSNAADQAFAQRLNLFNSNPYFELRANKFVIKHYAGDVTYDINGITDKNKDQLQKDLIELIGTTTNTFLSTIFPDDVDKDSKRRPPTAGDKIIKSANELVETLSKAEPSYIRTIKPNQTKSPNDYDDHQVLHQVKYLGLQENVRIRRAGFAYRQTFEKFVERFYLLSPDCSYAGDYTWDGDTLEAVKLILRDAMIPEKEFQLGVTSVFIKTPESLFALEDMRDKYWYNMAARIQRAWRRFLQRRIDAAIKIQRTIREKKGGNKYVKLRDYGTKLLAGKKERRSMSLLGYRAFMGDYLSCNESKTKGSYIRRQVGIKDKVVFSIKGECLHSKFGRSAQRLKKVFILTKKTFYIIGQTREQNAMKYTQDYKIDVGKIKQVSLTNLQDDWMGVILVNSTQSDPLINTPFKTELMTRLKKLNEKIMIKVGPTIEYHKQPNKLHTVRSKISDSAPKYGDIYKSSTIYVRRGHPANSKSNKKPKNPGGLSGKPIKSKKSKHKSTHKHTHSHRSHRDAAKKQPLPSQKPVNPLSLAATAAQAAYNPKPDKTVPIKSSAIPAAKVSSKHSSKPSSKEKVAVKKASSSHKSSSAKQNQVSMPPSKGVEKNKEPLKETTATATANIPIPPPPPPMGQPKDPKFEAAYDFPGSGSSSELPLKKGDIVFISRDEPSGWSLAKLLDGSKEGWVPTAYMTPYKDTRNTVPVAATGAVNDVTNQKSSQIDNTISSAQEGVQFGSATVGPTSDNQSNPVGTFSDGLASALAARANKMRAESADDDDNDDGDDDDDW
Growth (Fig. S2D) (Bathophenanthroline.0.1uM): 10.752 | Growth (Fig. S2D) (Bathophenanthroline.10uM): 10.5714 | Growth (Fig. S2D) (Bathophenanthroline.1uM): 10.7108 | Growth (Fig. S2D) (CaCl2.250mM): 10.7527 | Growth (Fig. S2D) (CaCl2.500mM): 10.1691 | Growth (Fig. S2D) (Caffein.10mM): 9.976 | Growth (Fig. S2D) (Caffein.2mM): 10.8692 | Growth (Fig. S2D) (CdCl2.100uM): 9.202 | Growth (Fig. S2D) (CdCl2.10uM): 10.8049 | Growth (Fig. S2D) (CdCl2.50uM): 9.536 | Growth (Fig. S2D) (CuSO4.1mM): 10.0301 | Growth (Fig. S2D) (CuSO4.5mM): 7.358 | Growth (Fig. S2D) (Cycloheximide.0.05.uM): 11.0001 | Growth (Fig. S2D) (Cycloheximide.0.2.uM): 10.4991 | Growth (Fig. S2D) (Cycloheximide.0.5.uM): 9.9209 | Growth (Fig. S2D) (DMSO.2.): 10.998 | Growth (Fig. S2D) (DMSO.6.): 9.853 | Growth (Fig. S2D) (DMSO.8.): 9.243 | Growth (Fig. S2D) (Ethanol.2.): 10.6338 | Growth (Fig. S2D) (Ethanol.6.): 10.0843 | Growth (Fig. S2D) (Ethanol.8.): 9.865 | Growth (Fig. S2D) (Galactose.2.): 10.6373 | Growth (Fig. S2D) (Glycerol.2.): 8.89 | Growth (Fig. S2D) (Hydroxyurea.25mM): 10.6592 | Growth (Fig. S2D) (Hygromycin.190uM): 10.9229 | Growth (Fig. S2D) (Hygromycin.19uM): 10.8956 | Growth (Fig. S2D) (Hygromycin.95uM): 10.9112 | Growth (Fig. S2D) (MMS.0.004.): 10.8802 | Growth (Fig. S2D) (MMS.0.02.): 10.4477 | Growth (Fig. S2D) (MMS.0.04.): 9.333 | Growth (Fig. S2D) (Menadione.100uM): 10.5316 | Growth (Fig. S2D) (Menadione.200uM): 10.3415 | Growth (Fig. S2D) (Menadione.50uM): 10.7191 | Growth (Fig. S2D) (NaCl.0.25M): 10.6458 | Growth (Fig. S2D) (NaCl.1M): 9.0624 | Growth (Fig. S2D) (Nitroquinoline.10uM): 10.5815 | Growth (Fig. S2D) (Nitroquinoline.50uM): 10.5108 | Growth (Fig. S2D) (Nystatin.0.01uM): 10.9576 | Growth (Fig. S2D) (Nystatin.0.1uM): 10.9795 | Growth (Fig. S2D) (Raffinose.2.): 10.915 | Growth (Fig. S2D) (Rapamycin.10nM): 9.682 | Growth (Fig. S2D) (Rapamycin.50nM): 9.448 | Growth (Fig. S2D) (SC.pH3): 10.2912 | Growth (Fig. S2D) (SC.pH6): 10.9261 | Growth (Fig. S2D) (SDS.0.01.): 10.9246 | Growth (Fig. S2D) (SDS.0.02.): 10.9437 | Growth (Fig. S2D) (SDS.0.05.): 10.7731 | Growth (Fig. S2D) (Sorbitol.10mM): 10.9112 | Growth (Fig. S2D) (Sorbitol.1mM): 11.0073 | Growth (Fig. S2D) (Sorbitol.5mM): 10.8833

B2: MYO5 (protein, UniProt Q04439 1-1219, looked up)
Myosin-5: MAILKRGARKKVHQEPAKRSANIKKATFDSSKKKEVGVSDLTLLSKISDEAINENLKKRFLNATIYTYIGHVLISVNPFRDLGIYTDAVMNEYKGKNRLEVPPHVFAIAESMYYNMKSYNENQCVIISGESGAGKTEAAKRIMQYIAAASSTHTESIGKIKDMVLATNPLLESFGCAKTLRNNNSSRHGKYLEIKFNNQFEPCAGNITNYLLEKQRVVSQIKNERNFHIFYQFTKGASDAYRQTFGVQKPEQYVYTAAAGCISAETIDDLQDYQETLKAMRVIGLGQEEQDQIFRMLAAILWIGNVSFIENEEGNAQVRDTSVTDFVAYLLQIDSQLLIKSLVERIMETNHGMKRGSVYHVPLNIVQADAVRDALAKAIYNNLFDWIVSRVNKSLQAFPGAEKSIGILDIYGFEIFEHNSFEQICINYVNEKLQQIFIQLTLKSEQETYEREKIQWTPIKYFDNKVVCDLIEARRPPGIFAAMNDSVATAHADSNAADQAFAQRLNLFTTNPHFDLRSNKFVIKHYAGDVTYDIDGITDKNKDQLQKDLVELIGTTTNTFLATIFPDTVDRESKRRPPTAGDKIIKSANDLVETLSKAQPSYIRTIKPNETKSPNDYDDRQVLHQIKYLGLQENVRIRRAGFAYRQVFEKFVERFYLLSPHCSYAGDYTWQGDTLDAVKYILQDSSIPQQEYQLGVTSVFIKTPETLFALEHMRDRYWHNMAARIQRAWRRFLQRRIDAATKIQRTIRERKEGNKYEKLRDYGTKVLGGRKERRSMSLLGYRAFMGDYLSCNESKSKGAYIKRQVSIKEKVIFSIHGEALHTKFGRSAQRLKKTFLLTPTTLYIVGQTLVQNAMTYTQDYKIDVRNIQAVSLTNLQDDWVAIKLASSGQPDPLINTYFKTELITHLKRLNDKIQIKIGSAIEYQKKPGKLHSVKCQINESAPKYGDIYKSSTISVRRGNPPNSQVHKKPRKKSSISSGYHASSSQATRRPVSIAAAQHVPTAPASRHSKKPAPPPPGMQNKAATRRSVPNPASTLTASQSNARPSPPTAATRATPAATPAAAAMGSGRQANIPPPPPPPPPSSKPKEPMFEAAYDFPGSGSPSELPLKKGDVIYITREEPSGWSLGKLLDGSKEGWVPTAYMKPHSGNNNIPTPPQNRDVPKPVLNSVQHDNTSANVIPAAAQASLGDGLANALAARANKMRLESDDEEANEDEEEDDW
Growth (Fig. S2D) (Bathophenanthroline.0.1uM): 10.7807 | Growth (Fig. S2D) (Bathophenanthroline.10uM): 10.5943 | Growth (Fig. S2D) (Bathophenanthroline.1uM): 10.7288 | Growth (Fig. S2D) (CaCl2.100mM): 10.8763 | Growth (Fig. S2D) (CaCl2.250mM): 10.7748 | Growth (Fig. S2D) (CaCl2.500mM): 10.1951 | Growth (Fig. S2D) (Caffein.10mM): 10.0771 | Growth (Fig. S2D) (Caffein.2mM): 10.9616 | Growth (Fig. S2D) (CdCl2.100uM): 9.383 | Growth (Fig. S2D) (CdCl2.10uM): 10.8746 | Growth (Fig. S2D) (CdCl2.50uM): 9.758 | Growth (Fig. S2D) (CuSO4.1mM): 10.0515 | Growth (Fig. S2D) (CuSO4.5mM): 7.47 | Growth (Fig. S2D) (Cycloheximide.0.05.uM): 11.0185 | Growth (Fig. S2D) (Cycloheximide.0.2.uM): 10.5753 | Growth (Fig. S2D) (Cycloheximide.0.5.uM): 10.0157 | Growth (Fig. S2D) (DMSO.2.): 11.0566 | Growth (Fig. S2D) (DMSO.6.): 9.912 | Growth (Fig. S2D) (DMSO.8.): 9.351 | Growth (Fig. S2D) (Ethanol.2.): 10.6973 | Growth (Fig. S2D) (Ethanol.6.): 10.1096 | Growth (Fig. S2D) (Ethanol.8.): 9.896 | Growth (Fig. S2D) (Galactose.2.): 10.7371 | Growth (Fig. S2D) (Glycerol.2.): 8.938 | Growth (Fig. S2D) (Hydroxyurea.25mM): 10.701 | Growth (Fig. S2D) (Hygromycin.190uM): 10.9824 | Growth (Fig. S2D) (Hygromycin.19uM): 10.9737 | Growth (Fig. S2D) (Hygromycin.95uM): 11.0723 | Growth (Fig. S2D) (MMS.0.004.): 10.9048 | Growth (Fig. S2D) (MMS.0.02.): 10.5139 | Growth (Fig. S2D) (MMS.0.04.): 9.517 | Growth (Fig. S2D) (Menadione.100uM): 10.5627 | Growth (Fig. S2D) (Menadione.200uM): 10.4133 | Growth (Fig. S2D) (Menadione.50uM): 10.7993 | Growth (Fig. S2D) (NaCl.0.25M): 10.7283 | Growth (Fig. S2D) (NaCl.1M): 9.177 | Growth (Fig. S2D) (Nitroquinoline.10uM): 10.6793 | Growth (Fig. S2D) (Nitroquinoline.50uM): 10.4598 | Growth (Fig. S2D) (Nystatin.0.01uM): 11.0134 | Growth (Fig. S2D) (Nystatin.0.1uM): 10.9398 | Growth (Fig. S2D) (Raffinose.2.): 10.9979 | Growth (Fig. S2D) (Rapamycin.10nM): 9.833 | Growth (Fig. S2D) (Rapamycin.50nM): 9.517 | Growth (Fig. S2D) (SC.pH3): 10.3672 | Growth (Fig. S2D) (SC.pH6): 10.9549 | Growth (Fig. S2D) (SDS.0.01.): 10.9651 | Growth (Fig. S2D) (SDS.0.02.): 10.9575 | Growth (Fig. S2D) (SDS.0.05.): 10.8115 | Growth (Fig. S2D) (Sorbitol.10mM): 10.9933 | Growth (Fig. S2D) (Sorbitol.1mM): 11.0521 | Growth (Fig. S2D) (Sorbitol.5mM): 10.9248
